This series in a line: soluble on expression in E. coli; label from the status in PepcDB or PDB records.
With “VGRATQSAKELDVKIKNVIRNVHILLKQISGTDGEGNNVPSGDFSREWAEAQRMMRELRNRNFGKHLREAEADKRESQLLLNRIRTWQKTHQGENNGLANSIRDSLNEYEAKLSDLRARLQEAAAQAKQANGLNQENERALGAIQRQVKEINSLQSDFTKYLTTADSSLLQTNIALQLMEKSQKEYEKLAASLNEARQELSDKVRELSRSAGKTSLVEEAEKHARSLQELAKQLEEIKRNASGDELVRCAVDAATAYENILNAIKAAEDAANRAASASESALQTVIKEDLPRKAKTLSSNSDKLLNEAKMTQKKLKQEVSPALNNLQQTLNIVTVQKEVIDTNLTTLRDGLHGIQRGDIDAMISSAKSMVRKANDITDEVLDGLNPIQTDVERIKDTYGRTQNEDFKKALTDADNSVNKLTNKLPDLWRKIESINQQLLPLGNISDNMDRIRELIQQARDAASKVAVPMRFNGKSGVEVRLPNDLEDLKGYTSLSLFLQRPNSRENGGTENMFVMYLGNKDASRDYIGMAVVDGQLTCVYNLGDREAELQVDQILTKSETKEAVMDRVKFQRIYQFARLNYTKGATSSKPETPGVYDMDGRNSNTLLNLDPENVVFYVGGYPPDFKLPSRLSFPPYKGCIELDDLNENVLSLYNFKKTFNLNTTEVEPCRRRKEESDKNYFEGTGYARVPTQPHAPIPTFGQTIQTTVDRGLLFFAENGDRFISLNIEDGKLMVRYKLNSELPKERGVGDAINNGRDHSIQIKIGKLQKRMWINVDVQNTIIDGEVFDFSTYYLGGIPIAIRERFNISTPAFRGCMKNLKKTSGVVRLNDTVGVTKKCSEDWKLVRSASFSRGGQLSFTDLGLPPTDHLQASFGFQTFQPSGILLDHQTWTRNLQVTLEDGYIELSTSDSGGPIFKSPQTYMDGLLHYVSVISDNSGLRLLIDDQLLRNSKRLKHISSSRQSLRLGGSNFEGCISNVFVQRLSLSPEVLDLTSNSLKRDVSLGGCSLNKPPFLMLLKGSTRFNKTKTFRINQLLQDTPVASPRSVKVWQDACSPLPKTQANHGALQFGDIPTSHLLFKLPQELLKPRSQFAVDMQTTSSRGLVFHTGTKNSFMALYLSKGRLVFALGTDGKKLRIKSKEKCNDGKWHTVVFGHDGEKGRLVVDGLRAREGSLPGNSTISIRAPVYLGSPPSGKPKSLPTNSFVGCLKNFQLDSKPLYTPSSSFGVSSCLGGPLEKGIYFSEEGGHVVLAHSVLLGPEFKLVFSIRPRSLTGILIHIGSQPGKHLCVYLEAGKVTASMDSGAGGTSTSVTPKQSLCDGQWHSVAVTIKQHILHLELDTDSSYTAGQIPFPPASTQEPLHLGGAPANLTTLRIPVWKSFFGCLRNIHVNHIPVPVTEALEVQGPVSLNGCPDQ”, the “soluble on expression in E. coli” value was “soluble”.
The value for “MSLGPVVHQTSSRFRRRSAQPTWDMSDGCADAIAFRVDSEGIKLHGFGIYLPTEPDRRNFVGEIMMLSPDSSEKWTCLLRVTAEMSSEEKEVGIVRFPEYVLLSPGVTYAVKVNMMKNTKTFCGEGGVTQVHLLNGARLFFSGCSMSQNGTTVQRGQLPYLIYSILDQSNSLQIKQEGHHHHHH” was “soluble”; that for “MRDAEKTVGNMIDKLKTAFIGSIDSEGFPNMKAMLQPRKREGIKTIYLTTNTSSMRVAQYRENNHACIYFCDTRFFRGVMLRGTMEVLTDPASKEMIWQEGDTMYYPEGVTDPDYCVLKFTAISGRFYSNFKSESFAVE” was “not soluble”.
Regarding “MGHHHHHHSHMISAHRNLHLPGSSNSPASAFLSSWDYRHVPPCPANVVFLVEMGFLHVGQAGLELPTSDDPPTLASQSAGITGVSHRTWQEFASLTVSQAVLRMLVWGPQFENHCSKLLMASEGDSSLVFFLYPLSNLN”, the “soluble on expression in E. coli” value was “not soluble”.
The value for “MDNLLIQVTGKKRVVLFSPRDAQYLYLKGTKSEVLNIDNPDLAKYPLFSKARRYECSLEAGDVLFIPALWFHNVISEEFGVGVNIFWKHLPSECYDKTDTYGNKDPTAASRAAQILDRALKTLAELPEEYRDFYARRMVLHIQDKAYSKNSE” was “not soluble”.
The entry for “MGSDKIHHHHHHCKPSKDETSSLKTADRKPLVTNLGNNVILPRYVALNTSVNAFDSEVQIFTAAPTIENLTSLRIKFYQAYIDWEYVACFEFGPAAASTVNLGTKTVNAFPADTAVIKNKIVQGVTAIPPTNSAMYSGFPAIDYLLFAKSLTAQQIVDSFTVSSTAVKRCNYLKTVSSDLKARINTTYTNWTASGANFISLYTNSTGIDLGSATSQTVNMLVADVENIKNFKLGIPLNIIQNVVVGDGSTVNPFKCEGYHSDSSLVLAKASIESLRKLYLGIGADGTDGEGFDNYLEAIDRSGLNVQIKNQIALLQAKLDAIPAPISIAIKNPAGKQAVNEAYTETLHLLVLLKVDMASAIGVMISYGDTDGD” is “not soluble”; for “MSLNADTPLQLLGGLTAAEFLRDYWQRKPLLVRQAIPDFESPLSADELAGLSLEESVESRIVLEHGKTPWEMRRGPFQEEDYQHLPEQDWTLLVQAVDQFVPEVAQLLEQFRFLPSWRIDDVMISYAAPGGGVGPHFDNYDVFLLQGHGRRRWKVGQMCSSDSPLREHADLRILADFEQSDEWVLEPGDMLYLPPRLAHYGIAEDECMTYSIGFRAPSAAEVLTHFTDSLGQFLSDEERYTDAGLQPVGDDPHQIQRDALERLQGLIQEHMSDERLLLTWFGQFMTEPRYPELVAGEDIPEEELFGALEDGALLVRNPSARLAWSEIDIGLVLFASGQSVLLPGQLKELLKLVCSADALHLENLGQWLADDDARKLLAELVKQGSLEFADEEGGSHHHHHH” it is “soluble”; for “MSLHRLASLPGGWTPAMEGVIIVEQTPAPLIFLTAADTDIQAIARVWPRLPGDFPDLRVCNLLNLQQSFSLDDYGDRVLGQAEVIVVRLLGGKSYWPYGLEVLGELTVTKPDLKLFVLPGDDRPDPSLMNQSTVPLTAVHCLWQYFAEGGTDNIRHGLMWLGDYGFGRNYRPPAPQMVPKVGIYRPEGHHHHHH” it is “soluble”.
The entry for “MLSEEDVHTNSYAGRTVAVMEQPDLFSDDCDEINLGNEDTPPSKLRLHTTEEPKESSSPAVINSIEDHDQYVGNDNHYAQISPEPALSNFKVTMREFEKRGDGMNAYIVYKLETEVSGVVGYTKQHYETWRRFSDFLGLHGKIVEKYLAKGIVIPQPPEKSISALTKTKTNSDPAMSREVGIQRARQLERYICRLIQHPRMRNDCDVRDFLTIESDLPKAVQTAALSSFGVKKIFKNFQVVFSKMAFHMEEGDRWFEQVQSQVDELDEALRKLYTVTETLVASRRDMATSGEQLGKALSMLAACEESTSLSRALSSLTDVTENVSAVYGKQAEVDNSKFSESIYEYIMLISALKDVFGERVRAWQQWQDAQQTLARKRDQKTKIDLSAGGRNERSDQLKGEIEDTVQKMDQLEQHFIELSKAIREEVARFDADRKQDMKKMLVEYMESMIHTHTELLHLWEKFEPEANNIRV” is “not soluble”; for “MSLDIRGMTVEEAEPVVKKFIDDLMMNGISKGYIIHGKGTGKLASGVWEILRKDKRVVSFRFGTPSEGGTGVTVVEVKEGHHHHHH” it is “not soluble”.
On to “MSLTFELYSGATFFRSRSAATKKVRDMQKERLKYVQEVYKVLATYVNFPKVCLPELIEKSIYEITEEEIVKKAEELRKIWGLDLISPVPNLIQLAEQNGVIISEANMSNPTLDAVSRWMIGRPFIMLTDNHESAVRRRFNVAHELGHILLHNGVESIHEYSQTELKNIIEYQANLFAAHFLLPSAAFSDSLLSISLEYYIDLKKYWKVSLQSMIQKIYTLALINDDQRLYLNKRIAKNKWKTKEPYDEQLTIEQPEVFQKVYHMILEHQVIPASQLNQAFKLPKEEIEKILGTAIQTEQDKTEIVLELLRSNKEGHHHHHH”, for which the “soluble on expression in E. coli” value is “soluble”.
As to “MSLGKATGFMEYDRIPSPGRDPKSRTRDWNEYSLPMPVADLTLQAARCMDCGVPFCSVGMEIKNGVSGCPLHNLIPEWNDAVYRGDWYEALQLLLKTNNFPEFTGRICPAPCEGGCTVAISEPAVGIKSIEKAIIDRGFEEGWIKPQPPKKRTGKRIAVIGSGPAGLACADQLNKAGHSVTVIEKSDRIGGLLMYGIPTMKLEKEQVTRRVNLMAEEGIEFVTGVAAGTDVTFAELRAEYDSIVLATGAGNARDIPLAGRDAAGIHFAVPYLTQSTRDNLDNGGVQTLSAKDKNVVIIGGGDTGADCVATALRQGAKSIYQFGIQDKLPELRNGENPWPQYPRVFKMDYAHEEAEAVYGRDPREYLINTTSFEKDAAGNLVGLHTVEVTEDKETRQYTPVEGSEKYFEVDMVLIAIGFSGTTEDIFTNFGVGKTERHTIDAAKGFYRTSEEGVFACGDARHGQSLVVTAIAEGREAAREVDFYLMGETFLEGHHHHHH”, the “soluble on expression in E. coli” value is “soluble”.
“SNAMDKYPFLREAGSSFKDRDVTKMSDLIATWDGQDIKGPALIGVPLSKSSISHSGASFAPGTIRQALKHSSAYSAELGEHVVSELLYDLGDIDIHVTDIVKSHHHIFQTMHALLSDHPDWVPLILGGDNSISYSTIKAIAQTKGTTAVIQFDAHHDVRNTEDGGPTNGTPFRRLLDEEIIEGQHLIQLGIREFSNSQAYEAYAKKHNVNIHTMDMIREKGLIPTIKEILPVVQDKTDFIFISVDMDVLDQSHAPGCPAIGPGGLYTDELLEAVKYIAQQPNVAGIEIVEVDPTLDFRDMTSRAAAHVLLHALKGMKLSPFK”: the “soluble on expression in E. coli” value is “soluble”.
The value for “MSLRIIHICLWLLTGIFAEVSLSAQNPFIYHKGKTYKDVAAYRMEEIIDLNTHTPSTPILYEQQVPEHQSTLSYKVALPLYVRGIFFSRDSRPGDYQWPNNTNRLLPWMFNHLEDLTRSDYASIPSNALPSASGDALLLELADGEYLFAKAIAGSNSLSWFQVNQDGTLTLYVSTLGEDALTGRLPLLIFRKSSSVYHVFSDAYDSLIADKAVSALRKRADKQYFNAFDYLGWCTWEHYHYDIDETKILNDIDAIEASGIPVRYVLIDDGHIANKNRQLTSLVPDKKRFPNGWSRIMKRKQADKIRWIGLWYSLSGYWMGISAENDFPPEIRQVLHSYNGSLLPGTSTEKIETWYEYYVRTMKEYGFDFLKIDNQSFTLPLYMGGTQVIRQAKDCNLALEHQTHRMQMGLMNCMAQNVLNIDHTLYSSVTRASIDYKKYDENMAKSHLFQSYTNTLILGQTVWPDHDMFHSCDTVCGSLMARSKAISGGPVYLSDSPSEFIADNIRPLIDETGKIFRPAAPAIPTPESILTNPLQSGKAYREGHHHHHH” was “soluble”; that for “MSLSIALIAPYESLATLCRSICQELDLDVSVHTGSMEDGVRIARNLMAEGVDFFISRGLTAQLIREQCPLPVAELEVSAFDIYLCLEPLLRSGKSIGVVGHSDILRKAKGASAALGFTIDFYATAHPGGMGHIMEAARRQGIAAIAGDAVAARTAERYGMEGVLVQNGADSVTNTLQYAVATYSYLTRQATMAGEGHHHHHH” was “not soluble”.
With “MLLMRRFAFLTSSVYFKYIPIYSQYHYSSQFPINMNPKKVAQLPVHNKSTLPPQEIIDLFKITFLEELYPKDQDNEKSPLTEQIQAVKSDLYNRDYNAAFNNDSKRIAYCCRWSPSRATSYASVFAHFPELLKIIRCEIDDKDSNVLCIGGGAGGELVALASIFTLSRDFSSKFASALKIDNEVNKKPRNLNIQLVDIADWSTVVEKLTATIKSKWLYGDSEAESFNVNFTHKDCLQMTEPQDIKIYQGLDLITLLFTTNELFTQKKVESIKFLQRLNENCAPGCHLLILESAGSYSHITINNKKFPIQFLIDTILVGNRKDKGTTGPWSLVSENDSIWYRMDPKLDYSIPLENMRFFYRLYVKN”, the “soluble on expression in E. coli” value is “not soluble”.
In the case of “MPKKRENRGRRKGDKGHVGYISCDQCGARVPEDKAVCVTKMYSPVDASLASELEKKGAIIARYPVTKCYCVNCAVFLGIIKIRAENERKQKARLRLEHHHHHH”, the “soluble on expression in E. coli” value is listed as “not soluble”.
